The values below are quoted from earlier work in article PMC6104694.

A word on the Kd: it is the free concentration of one partner at which half of the binding sites on the other are occupied at equilibrium, for simple one-to-one binding.

In data set [1] the target is presenilin-1 C-terminal fragment 23 amino acid CTF (Homo sapiens) (UniProt P49768).
Data set [2] has the same target. This is another data set of the same source.

Where two headings read alike, the source gives them in different places.

Chain of KChIP3 (calsenilin) (Q9Y2W7 whole entry): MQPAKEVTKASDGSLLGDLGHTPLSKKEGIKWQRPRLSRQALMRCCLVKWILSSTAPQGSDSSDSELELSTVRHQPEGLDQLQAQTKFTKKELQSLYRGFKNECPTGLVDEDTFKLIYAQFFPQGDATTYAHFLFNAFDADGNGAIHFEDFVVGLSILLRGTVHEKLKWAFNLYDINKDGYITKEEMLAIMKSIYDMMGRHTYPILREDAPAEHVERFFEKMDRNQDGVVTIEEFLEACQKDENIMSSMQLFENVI

“KChIP3 (calsenilin) (from UniProt Q9Y2W7)”: the Kd in data set [1] was 183 µM; in data set [2], 0.6 µM.
